Values quoted from earlier work in article PMC9010944.

Molecular target: PDGF-BB (Homo sapiens) (UniProt P01127)
Sequence (P01127 82-190): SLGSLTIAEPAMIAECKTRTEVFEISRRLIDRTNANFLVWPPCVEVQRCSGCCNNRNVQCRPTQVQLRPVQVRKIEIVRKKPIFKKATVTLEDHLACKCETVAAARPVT

Sequence of Perlecan domain III-2 (P98160 924-1324): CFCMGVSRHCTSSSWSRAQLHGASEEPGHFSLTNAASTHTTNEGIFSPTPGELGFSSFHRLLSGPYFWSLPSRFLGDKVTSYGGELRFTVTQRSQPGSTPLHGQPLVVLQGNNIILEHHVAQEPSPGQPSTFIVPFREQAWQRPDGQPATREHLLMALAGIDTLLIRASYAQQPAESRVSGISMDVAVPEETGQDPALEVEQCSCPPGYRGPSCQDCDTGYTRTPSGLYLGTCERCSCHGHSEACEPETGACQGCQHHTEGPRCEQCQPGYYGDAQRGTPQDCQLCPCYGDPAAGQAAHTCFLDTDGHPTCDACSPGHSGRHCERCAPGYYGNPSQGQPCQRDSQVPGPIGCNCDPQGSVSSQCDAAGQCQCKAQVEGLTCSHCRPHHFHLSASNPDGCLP

## Perlecan domain III-2 (from UniProt P98160)
  Kd: 8 nM
